Measured values from article doi:10.1101/2020.04.30.069369.

Assays:
[1] = target: Streptococcus dysgalactiae Rgg2 (S. dysgalactiae); experiment: crystal structure
[2] = target: Streptococcus thermophilus Rgg3 (S. thermophilus); experiment: cryo-EM structure
Rgg3St = target: T1, Rgg3St (Streptococcus thermophilus, UniProt Q5M4D0 1-284); experiment: X-ray crystallography
T1 sequence: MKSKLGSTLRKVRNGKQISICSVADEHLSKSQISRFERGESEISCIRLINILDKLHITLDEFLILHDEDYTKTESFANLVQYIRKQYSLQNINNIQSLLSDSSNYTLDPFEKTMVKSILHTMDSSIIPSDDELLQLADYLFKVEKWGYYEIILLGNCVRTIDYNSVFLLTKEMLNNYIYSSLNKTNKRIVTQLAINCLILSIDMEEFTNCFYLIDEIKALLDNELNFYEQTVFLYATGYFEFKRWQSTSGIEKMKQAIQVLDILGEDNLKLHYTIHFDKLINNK

Streptococcus dysgalactiae Rgg2 (natural protein)
stoichiometry N [1]: 2

Streptococcus thermophilus Rgg3 (natural protein)
stoichiometry N [2]: 2

B1: Rgg3 box (pSHP3DNA) (dsDNA)
DNA 1: CATAATTTTCCCATTTCCCCAACAAAAAAG
DNA 2: TTTTTGTTGGGGAAATGGGAAAATTATGCT
binding result (Rgg3St): binds
